Experimental data taken from article PMC5334656, “McMYB12 Transcription Factors Co-regulate Proanthocyanidin and Anthocyanin Biosynthesis in Malus Crabapple”.

What was measured:
McMYB12a = biological target: T1, McMYB12a (Malus crabapple, UniProt X2EXK4 1-364); test: EMSA; LightShift Chemiluminescent EMSA Kit per manufacturer; 10 ug protein, 25 pmol biotin probe, 10- to 1000-fold competitor; buffer, salt, pH and temperature not stated; details: protein: recombinant; label: biotin; blunt
T1 sequence: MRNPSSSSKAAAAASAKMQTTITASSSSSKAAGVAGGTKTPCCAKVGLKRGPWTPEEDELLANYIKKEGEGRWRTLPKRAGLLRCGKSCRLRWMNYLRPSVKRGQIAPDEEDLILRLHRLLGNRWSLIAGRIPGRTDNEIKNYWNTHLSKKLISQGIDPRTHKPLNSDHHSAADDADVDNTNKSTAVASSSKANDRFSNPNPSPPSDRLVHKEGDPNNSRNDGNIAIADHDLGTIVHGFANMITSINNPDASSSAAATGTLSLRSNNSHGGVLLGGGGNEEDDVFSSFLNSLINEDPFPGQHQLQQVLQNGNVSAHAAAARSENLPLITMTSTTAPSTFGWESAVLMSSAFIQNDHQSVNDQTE

McMYB12b = biological target: T2, McMYB12b (Malus crabapple, UniProt X2EZI4 1-374); test: as above; details: protein: recombinant; label: biotin; blunt
T2 sequence: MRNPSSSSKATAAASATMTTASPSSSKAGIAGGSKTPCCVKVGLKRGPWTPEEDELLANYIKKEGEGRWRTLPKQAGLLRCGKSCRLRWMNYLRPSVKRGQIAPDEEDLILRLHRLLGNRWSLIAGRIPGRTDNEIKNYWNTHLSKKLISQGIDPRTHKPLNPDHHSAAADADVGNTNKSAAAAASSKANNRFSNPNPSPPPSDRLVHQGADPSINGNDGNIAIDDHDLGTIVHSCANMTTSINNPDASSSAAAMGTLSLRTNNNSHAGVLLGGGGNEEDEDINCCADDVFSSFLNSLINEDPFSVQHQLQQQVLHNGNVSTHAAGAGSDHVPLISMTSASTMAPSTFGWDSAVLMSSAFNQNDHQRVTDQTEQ

B1: proMcCHS probe (dsDNA)
DNA 1: GCAACTCCTCCCAACTGTGTGGATCAAGCCACATACCCCGACTATTACT
DNA 2: AGTAATAGTCGGGGTATGTGGCTTGATCCACACAGTTGGGAGGAGTTGC
B1: binds (McMYB12a).

B2: proMcLAR1 probe (dsDNA)
DNA 1: GGACAGAAATTATCCATACACCCTTTTCGTTAATGTTGCAAACTGAGT
DNA 2: ACTCAGTTTGCAACATTAACGAAAAGGGTGTATGGATAATTTCTGTCC
B2: binds (McMYB12b); no binding (McMYB12a).

B3: proMcANR2 probe (dsDNA)
DNA 1: ATTGGGAGATATGTGCTCGTTTTAGAGTGCTTTTAAAATAACTGAAAAC
DNA 2: GTTTTCAGTTATTTTAAAAGCACTCTAAAACGAGCACATATCTCCCAAT
B3: binds (McMYB12b); binds (McMYB12a).

B4: proMcLAR2 probe (dsDNA)
DNA 1: AAGTATGGTATAAACACAGACTAAGCCTCATTATCATATCCATATCAT
DNA 2: ATGATATGGATATGATAATGAGGCTTAGTCTGTGTTTATACCATACTT
B4: binds (McMYB12b); binds (McMYB12a).

B5: proMcANS probe (dsDNA)
DNA 1: AGATCATTGCTCCAACTGGCTAAAATTAAGTGACCATTACTATAAT
DNA 2: ATTATAGTAATGGTCACTTAATTTTAGCCAGTTGGAGCAATGATCT
B5: binds (McMYB12b); binds (McMYB12a).

B6: proMcANR1 probe (dsDNA)
DNA 1: ATTCTGAGTACTGTAACCTAAGTTGAAGTTGAATAATTGACGTCGTC
DNA 2: GACGACGTCAATTATTCAACTTCAACTTAGGTTACAGTACTCAGAAT
B6: binds (McMYB12b); binds (McMYB12a).
